Data reported in US20190010233A1 (JIANGSU HYAMAB PHARMACEUTICAL, published 2019).
Where two headings read alike, the source gives them in different places.

Columns and labels:
[1] = target: T1, full length human PD-L1 on cells (human, UniProt Q9NZQ7 19-290); experiment: cell-based or functional assay
[2] = target: T1, full length human PD-L1 on cells; experiment: cell-based or functional assay; remark: listed apart in the source
[3] = target: T1, full length human PD-L1 on cells; experiment: FACS CHOK1-hPD-L1, 3 nM mAb
[4] = target: T1, full length human PD-L1 on cells; experiment: FACS CHOK1-hPD-L1, 30 nM mAb
[5] = target: T2, full length cyno PD-L1 on cells (cyno, UniProt G7PSE7 19-290); experiment: FACS CHO-K1-cPD-L1, 3 nM mAb
T2 construct: also called CHO-K1-cPD-L1
T2 sequence (G7PSE7 entry or part of it limits assumed): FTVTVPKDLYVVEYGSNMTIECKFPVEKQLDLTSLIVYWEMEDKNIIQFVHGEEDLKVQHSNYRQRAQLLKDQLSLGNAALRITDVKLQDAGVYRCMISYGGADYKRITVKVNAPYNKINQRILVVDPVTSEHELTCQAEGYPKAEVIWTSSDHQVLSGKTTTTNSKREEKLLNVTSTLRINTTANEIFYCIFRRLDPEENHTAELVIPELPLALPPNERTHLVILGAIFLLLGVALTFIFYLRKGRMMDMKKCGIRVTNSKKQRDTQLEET

[6] = target: T1, full length human PD-L1 on cells; experiment: FACS CHOK1-hPD-L1, 0.3 nM mAb
[7] = target: T1, full length human PD-L1 on cells; experiment: FACS CHOK1-hPD-L1, 300 nM mAb
[8] = target: T2, full length cyno PD-L1 on cells; experiment: FACS CHO-K1-cPD-L1, 30 nM mAb
[9] = target: T1, full length human PD-L1 on cells; experiment: FACS CHOK1-hPD-L1, 0.03 nM mAb
[10] = target: T2, full length cyno PD-L1 on cells; experiment: FACS CHO-K1-cPD-L1, 0.3 nM mAb
[11] = target: T2, full length cyno PD-L1 on cells; experiment: FACS CHO-K1-cPD-L1, 300 nM mAb
[12] = target: T1, full length human PD-L1 on cells; experiment: FACS CHOK1-hPD-L1, 0.003 nM mAb
[13] = target: T2, full length cyno PD-L1 on cells; experiment: FACS CHO-K1-cPD-L1, 0.03 nM mAb
[14] = target: T1, full length human PD-L1 on cells; experiment: FACS CHOK1-hPD-L1, 0.0003 nM mAb
[15] = target: T2, full length cyno PD-L1 on cells; experiment: FACS CHO-K1-cPD-L1, 0.003 nM mAb
[16] = target: T2, full length cyno PD-L1 on cells; experiment: FACS CHO-K1-cPD-L1, 0.0003 nM mAb
[17] = target: T3, human PD-L1^ECD-hFc protein (human, UniProt Q9NZQ7 19-239, biotinylated in the PD-1 binding ELISA (Table 3) and in the Octet assay (Table 12)); experiment: ELISA receptor-ligand blocking assay: PD-L1 protein coated, fully human antibody titrated, blocked ligand PD-1, inhibition rate (%)
T3 construct: The plain and the biotinylated protein are kept as one molecule; also called PD-L1-hFc; Immunogen A; not shown: human IgG Fc fragment (hFc)
T3 sequence (Q9NZQ7 19-239): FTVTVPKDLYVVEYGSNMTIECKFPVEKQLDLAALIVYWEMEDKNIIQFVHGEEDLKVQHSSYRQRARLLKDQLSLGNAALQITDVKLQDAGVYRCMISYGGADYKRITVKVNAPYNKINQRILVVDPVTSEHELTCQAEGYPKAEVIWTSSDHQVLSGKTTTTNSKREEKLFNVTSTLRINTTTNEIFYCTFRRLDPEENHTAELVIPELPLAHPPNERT

[18] = target: T3, human PD-L1^ECD-hFc protein; experiment: ELISA receptor-ligand blocking assay: PD-L1 protein coated, fully human antibody titrated, blocked ligand B7.1, inhibition rate (%)
[19] = target: T1, full length human PD-L1 on cells; experiment: cell-based or functional assay; remark: listed apart in the source
[20] = target: T1, full length human PD-L1 on cells; experiment: cell-based or functional assay; remark: listed apart in the source
[21] = target: T1, full length human PD-L1 on cells; experiment: cell-based or functional assay; remark: listed apart in the source
[22] = target: T4, recombinant His-tagged hPD-L1 ECD protein (human, UniProt Q9NZQ7 19-239); experiment: SPR Biacore T200, mAb captured by anti-human Fc, His-tagged hPD-L1 ECD as analyte, 1:1 model
T4 construct: also called His-tagged human PD-L1 ECD protein; His-tagged PD-L1^ECD; not shown: His tag
T4 sequence (Q9NZQ7 19-239): as above
Experimental: Anti-human Fc IgG was immobilized on flow cells 1 and 2: HBS-EP+ (10 mM HEPES, 150 mM NaCl, 3 mM EDTA, 0.05% P20, pH 7.4) was used as miming buffer, and the immobilization of anti-human Fc IgG was carried out using the immobilization wizard template. Flow cells 1 and 2 of a Series S CM5 sensor chip were activated with freshly-mixed 50 mmol/L NHS and 200 mmol/L EDC. 20 μg/mL of anti-human Fc IgG diluted in 10 mM NaAC (pH 4.5) was injected into the activated flow cells 1 and 2. The remaining active coupling sites were blocked with 1M ethanolamine.
KD measurements were carried out with HBS-EP+ as the running buffer. Each antibody was injected over the CM5 sensor flow cell 2 with a flow rate of 10 μL/min to reach response 230 RU. […] Buffer flow was maintained for 400 seconds for dissociation measurements (30 μL/min). To remove the tested antibody from the surface, 10 mM glycine-HCl pH 1.5 was injected for 20 seconds (30 μL/min). Flow cell 1 was used as reference flow cell. The above steps were repeated for each concentration of serially-diluted His-tagged PD-L1^ECD protein. The KD value for each antibody was evaluated using Biacore T200 evaluation software 1.0, and the data was fit with a 1:1 binding model.

T1 sequence (Q9NZQ7 19-290 limits assumed): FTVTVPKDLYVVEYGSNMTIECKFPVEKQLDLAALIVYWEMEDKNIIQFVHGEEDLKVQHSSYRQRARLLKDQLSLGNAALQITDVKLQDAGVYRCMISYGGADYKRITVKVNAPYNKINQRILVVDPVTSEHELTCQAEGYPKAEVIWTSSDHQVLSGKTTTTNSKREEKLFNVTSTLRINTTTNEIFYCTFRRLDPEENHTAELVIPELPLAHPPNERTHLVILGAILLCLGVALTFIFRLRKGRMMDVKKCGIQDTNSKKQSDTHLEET

B1: fully human anti-PD-L1 antibody 105C5D7 (antibody, V domains shown)
VH: EVQLVESGGGLVQPGGSLRLSCAASGFTFSSYWMSWVRQAPGKGLEWVANIKQDGNEKYYVDSVKGRFTISRDNAKNSLYLQMNSLRAEDTAVYYCARNIKWGDAFDIWGQGTMVTVSS
VL: DIQMTQSPSSLSASVGDRVTITCRASQSISSYLNWYQQKPGKAPKLLIYAASSLQSGVPSRFSGSGSGTDFTLTISSLQPEDFAIYSCQQSYSIPLTFGGGTKVEIKR
notes: also called 105C5D7 (fully human)
- IL-2 (pg/mL), MLR, 0.001 µg/mL mAb [1]: 43 pg/mL
- IL-2 (pg/mL), MLR, 0.01 µg/mL mAb [1]: 92.2 pg/mL
- IL-2 (pg/mL), MLR, 0.1 µg/mL mAb [1]: 118 pg/mL
- IL-2 (pg/mL), MLR, 1 µg/mL mAb [1]: 148 pg/mL
- IFN-γ (pg/mL), MLR, 0.001 µg/mL mAb [2]: 1880 pg/mL
- IFN-γ (pg/mL), MLR, 0.01 µg/mL mAb [2]: 2580 pg/mL
- IFN-γ (pg/mL), MLR, 0.1 µg/mL mAb [2]: 4930 pg/mL
- IFN-γ (pg/mL), MLR, 1 µg/mL mAb [2]: 4280 pg/mL
- IFN-γ (pg/mL), MLR, 10 µg/mL mAb [2]: 5260 pg/mL
- Mean fluorescence intensity [3]: 435
- Mean fluorescence intensity [4]: 380
- Mean fluorescence intensity [5]: 375
- Mean fluorescence intensity [6]: 116
- Mean fluorescence intensity [7]: 382
- Mean fluorescence intensity [8]: 335
- Mean fluorescence intensity [9]: 23.1
- Mean fluorescence intensity [10]: 107
- Mean fluorescence intensity [11]: 299
- Mean fluorescence intensity [12]: 7.3
- Mean fluorescence intensity [13]: 18.8
- Mean fluorescence intensity [14]: 6.61
- Mean fluorescence intensity [15]: 9.85
- Mean fluorescence intensity [16]: 5.31
- IC50 (read off the curve) [17]: ~2 nM
- IC50 (read off the curve) [18]: ~2 nM

B2: fully human anti-PD-L1 antibody 73D3G2 (antibody, human IgG4 S228P, kappa, V domains shown)
VH: EVQLVESGGGLVQPGGSLRLSCAASGFTFNTYWMNWVRQAPGRGLEWVANIKQDGGEKYYVDSVKGRFTISRDNAKNSLYLQMNSLRAEDTAMYYCARDGRSWYPDAFDIWGQGTVVTVSS
VL: DIQMTQSPSTLSASVGDRVTITCRASQSISTWLAWYQQKLGKAPKLLIYEVSILESGVPSRFSGSGSGTEFTLTISSLQPDDFATYYCQQYHSFSSFGGGTRVEIKR
notes: also called 73D3G2 (fully human)
- IL-2 (pg/mL), MLR, 0.001 µg/mL mAb [1]: 59.7 pg/mL
- IL-2 (pg/mL), MLR, 0.01 µg/mL mAb [1]: 83.4 pg/mL
- IL-2 (pg/mL), MLR, 0.1 µg/mL mAb [1]: 114 pg/mL
- IL-2 (pg/mL), MLR, 1 µg/mL mAb [1]: 139 pg/mL
- IL-2 (pg/mL), MLR, 0.001 µg/mL mAb [19]: 205 pg/mL
- IL-2 (pg/mL), MLR, 0.01 µg/mL mAb [19]: 218 pg/mL
- IL-2 (pg/mL), MLR, 0.1 µg/mL mAb [19]: 563 pg/mL
- IL-2 (pg/mL), MLR, 1 µg/mL mAb [19]: 716 pg/mL
- IL-2 (pg/mL), MLR, 10 µg/mL mAb [19]: 791 pg/mL
- IFN-γ (pg/mL), MLR, 0.001 µg/mL mAb [2]: 957 pg/mL
- IFN-γ (pg/mL), MLR, 0.01 µg/mL mAb [2]: 1080 pg/mL
- IFN-γ (pg/mL), MLR, 0.1 µg/mL mAb [2]: 1990 pg/mL
- IFN-γ (pg/mL), MLR, 1 µg/mL mAb [2]: 3040 pg/mL
- IFN-γ (pg/mL), MLR, 10 µg/mL mAb [2]: 2590 pg/mL
- IFN-γ (pg/mL), MLR, 0.001 µg/mL mAb [20]: 12500 pg/mL
- IFN-γ (pg/mL), MLR, 0.01 µg/mL mAb [20]: 10000 pg/mL
- IFN-γ (pg/mL), MLR, 0.1 µg/mL mAb [20]: 21000 pg/mL
- IFN-γ (pg/mL), MLR, 1 µg/mL mAb [20]: 21500 pg/mL
- IFN-γ (pg/mL), MLR, 10 µg/mL mAb [20]: 21400 pg/mL
- IFN-γ (pg/mL), T cell stimulation assay, 0.001 µg/mL mAb [21]: 4450 pg/mL
- IFN-γ (pg/mL), T cell stimulation assay, 0.01 µg/mL mAb [21]: 10600 pg/mL
- IFN-γ (pg/mL), T cell stimulation assay, 0.1 µg/mL mAb [21]: 12300 pg/mL
- IFN-γ (pg/mL), T cell stimulation assay, 1 µg/mL mAb [21]: 12300 pg/mL
- IFN-γ (pg/mL), T cell stimulation assay, 10 µg/mL mAb [21]: 14000 pg/mL
- Mean fluorescence intensity [3]: 576
- Mean fluorescence intensity [4]: 595
- Mean fluorescence intensity [5]: 495
- Mean fluorescence intensity [6]: 193
- Mean fluorescence intensity [7]: 602
- Mean fluorescence intensity [8]: 519
- Mean fluorescence intensity [9]: 28.6
- Mean fluorescence intensity [10]: 174
- Mean fluorescence intensity [11]: 512
- Mean fluorescence intensity [12]: 7.6
- Mean fluorescence intensity [13]: 26.2
- Mean fluorescence intensity [14]: 4.68
- Mean fluorescence intensity [15]: 7.84
- Mean fluorescence intensity [16]: 4.87
- Kd [22]: 0.536 nM
- koff [22]: 0.000757 s⁻¹
- kon [22]: 1.41e+06 M⁻¹ s⁻¹
- IC50 (read off the curve) [17]: ~1 nM
- IC50 (read off the curve) [18]: ~1 nM

B3: fully human anti-PD-L1 antibody 78A11F6 (antibody, human IgG4 S228P, kappa, V domains shown)
VH: EVQLVESGGGLVQPGGSLRLSCAASGITFSSYWMSWVRQTPGKGLEWVANIKQDGSEKYYVKSVKGRFTISRDNAKNSLYLQMNSLRAEDTAVYYCVRDRAVPGTGAFDIWGQGTMVIVSS
VL: DIQMTQSPSTLSASVGDRVTITCRASQSISNWLAWYQQKPGKAPKLLIYKASSLESGVPSRFSGSGSGTEFTLTISSLQPDDFATYYCQQYDSSLFTFGQGTKLEIKR
notes: also called 78A11F6 (fully human)
- IL-2 (pg/mL), MLR, 0.001 µg/mL mAb [19]: 210 pg/mL
- IL-2 (pg/mL), MLR, 0.01 µg/mL mAb [19]: 283 pg/mL
- IL-2 (pg/mL), MLR, 0.1 µg/mL mAb [19]: 730 pg/mL
- IL-2 (pg/mL), MLR, 1 µg/mL mAb [19]: 736 pg/mL
- IL-2 (pg/mL), MLR, 10 µg/mL mAb [19]: 842 pg/mL
- IFN-γ (pg/mL), MLR, 0.001 µg/mL mAb [2]: 1080 pg/mL
- IFN-γ (pg/mL), MLR, 0.01 µg/mL mAb [2]: 1650 pg/mL
- IFN-γ (pg/mL), MLR, 0.1 µg/mL mAb [2]: 3010 pg/mL
- IFN-γ (pg/mL), MLR, 1 µg/mL mAb [2]: 3760 pg/mL
- IFN-γ (pg/mL), MLR, 10 µg/mL mAb [2]: 3400 pg/mL
- IFN-γ (pg/mL), T cell stimulation assay, 0.001 µg/mL mAb [21]: 4030 pg/mL
- IFN-γ (pg/mL), T cell stimulation assay, 0.01 µg/mL mAb [21]: 9200 pg/mL
- IFN-γ (pg/mL), T cell stimulation assay, 0.1 µg/mL mAb [21]: 9840 pg/mL
- IFN-γ (pg/mL), T cell stimulation assay, 1 µg/mL mAb [21]: 9960 pg/mL
- IFN-γ (pg/mL), T cell stimulation assay, 10 µg/mL mAb [21]: 12500 pg/mL
- Mean fluorescence intensity [3]: 619
- Mean fluorescence intensity [4]: 620
- Mean fluorescence intensity [5]: 521
- Mean fluorescence intensity [6]: 217
- Mean fluorescence intensity [7]: 633
- Mean fluorescence intensity [8]: 529
- Mean fluorescence intensity [9]: 36.5
- Mean fluorescence intensity [10]: 243
- Mean fluorescence intensity [11]: 538
- Mean fluorescence intensity [12]: 10.4
- Mean fluorescence intensity [13]: 64.1
- Mean fluorescence intensity [14]: 6.53
- Mean fluorescence intensity [15]: 8.94
- Mean fluorescence intensity [16]: 5.47
- Kd [22]: 0.643 nM
- koff [22]: 0.000472 s⁻¹
- kon [22]: 734000 M⁻¹ s⁻¹
- IC50 (read off the curve) [17]: ~0.7 nM
- IC50 (read off the curve) [18]: ~0.7 nM
